# In patent US20140206607A1 (INDIANA UNIVERSITY RESEARCH AND TECHNOLOGY, published 2014):
# Numbered stars: 1 amine (or outer) side, 2 acyl side, 3 side chain; on linkers, the order of the positions; unused ones are H or OH. Square brackets hold non-standard residues; d marks the D form. Side chains are listed from the residue outwards. Ends that are not written are not given here. * marks the point of attachment. 40K‑TE PEG = 40 kDa PEG covalently bound via thioether, formed by reaction of the free thiol of the peptide (Cys side chain) with an iodoacetic-functionalized PEG; γGlu = O=C(O)[C@H](CCC(=O)[*:2])N[*:1]; Palmitoyl = CCCCCCCCCCCCCCCC(=O)*; Orn = NCCC[C@H](N)C(=O)O; Aib = CC(C)(N)C(=O)O
# T1: GIP receptor (UniProt P48546 22-466)
# T1 sequence (looked up): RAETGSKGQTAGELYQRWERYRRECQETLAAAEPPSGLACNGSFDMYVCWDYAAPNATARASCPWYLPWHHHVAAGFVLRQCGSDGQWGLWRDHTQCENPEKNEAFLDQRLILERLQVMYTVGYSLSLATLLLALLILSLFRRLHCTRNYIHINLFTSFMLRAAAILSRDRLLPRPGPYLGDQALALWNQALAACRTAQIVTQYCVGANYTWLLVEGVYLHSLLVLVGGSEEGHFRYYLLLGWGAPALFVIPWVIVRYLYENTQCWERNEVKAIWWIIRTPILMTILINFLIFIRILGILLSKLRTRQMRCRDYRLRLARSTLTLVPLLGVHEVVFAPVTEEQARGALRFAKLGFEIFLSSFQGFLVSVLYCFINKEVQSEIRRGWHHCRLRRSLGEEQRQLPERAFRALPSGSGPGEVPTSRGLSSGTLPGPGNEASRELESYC
# B1: peptide of SEQ ID NO: 15 (peptide)
# peptide: H[Aib]QGTFTSDYSKYLDEKRA[Aib]EFVC(40K‑TE PEG)WLMDT-NH2
# B2: peptide of SEQ ID NO: 35 (peptide)
# peptide: H[Aib]QGTFTSDYSKYLDERRA[Aib]EFVC(40K‑TE PEG)WLLDGGPSSGAPPPS-NH2
# B3: peptide of SEQ ID NO: 37 (peptide)
# peptide: H[Aib]QGTFTSDK([γGlu-γGlu-Palmitoyl])SKYLD[Aib]RAAQDFVQWLMKTK[dE]-OH
# modifications: N-terminus assumed
# SMILES: CCCCCCCCCCCCCCCC(=O)N[C@@H](CCC(=O)N[C@@H](CCC(=O)NCCCC[C@H](NC(=O)[C@H](CC(=O)O)NC(=O)[C@H](CO)NC(=O)[C@@H](NC(=O)[C@H](Cc1ccccc1)NC(=O)[C@@H](NC(=O)CNC(=O)[C@H](CCC(N)=O)NC(=O)C(C)(C)NC(=O)[C@@H](N)Cc1c[nH]cn1)[C@@H](C)O)[C@@H](C)O)C(=O)N[C@@H](CO)C(=O)N[C@@H](CCCCN)C(=O)N[C@@H](Cc1ccc(O)cc1)C(=O)N[C@@H](CC(C)C)C(=O)N[C@@H](CC(=O)O)C(=O)NC(C)(C)C(=O)N[C@@H](CCCNC(=N)N)C(=O)N[C@@H](C)C(=O)N[C@@H](C)C(=O)N[C@@H](CCC(N)=O)C(=O)N[C@@H](CC(=O)O)C(=O)N[C@@H](Cc1ccccc1)C(=O)N[C@H](C(=O)N[C@@H](CCC(N)=O)C(=O)N[C@@H](Cc1c[nH]c2ccccc12)C(=O)N[C@@H](CC(C)C)C(=O)N[C@@H](CCSC)C(=O)N[C@@H](CCCCN)C(=O)N[C@H](C(=O)N[C@@H](CCCCN)C(=O)N[C@H](CCC(=O)O)C(=O)O)[C@@H](C)O)C(C)C)C(=O)O)C(=O)O
# B4: peptide of SEQ ID NO: 33 (peptide)
# peptide: H[Aib]QGTFTSDK([γGlu-γGlu-Palmitoyl])SKYLD[Aib]RAAQDFVQWLM[Orn]T[Orn]E-OH
# modifications: N-terminus assumed
# SMILES: CCCCCCCCCCCCCCCC(=O)N[C@@H](CCC(=O)N[C@@H](CCC(=O)NCCCC[C@H](NC(=O)[C@H](CC(=O)O)NC(=O)[C@H](CO)NC(=O)[C@@H](NC(=O)[C@H](Cc1ccccc1)NC(=O)[C@@H](NC(=O)CNC(=O)[C@H](CCC(N)=O)NC(=O)C(C)(C)NC(=O)[C@@H](N)Cc1c[nH]cn1)[C@@H](C)O)[C@@H](C)O)C(=O)N[C@@H](CO)C(=O)N[C@@H](CCCCN)C(=O)N[C@@H](Cc1ccc(O)cc1)C(=O)N[C@@H](CC(C)C)C(=O)N[C@@H](CC(=O)O)C(=O)NC(C)(C)C(=O)N[C@@H](CCCNC(=N)N)C(=O)N[C@@H](C)C(=O)N[C@@H](C)C(=O)N[C@@H](CCC(N)=O)C(=O)N[C@@H](CC(=O)O)C(=O)N[C@@H](Cc1ccccc1)C(=O)N[C@H](C(=O)N[C@@H](CCC(N)=O)C(=O)N[C@@H](Cc1c[nH]c2ccccc12)C(=O)N[C@@H](CC(C)C)C(=O)N[C@@H](CCSC)C(=O)N[C@@H](CCCN)C(=O)N[C@H](C(=O)N[C@@H](CCCN)C(=O)N[C@@H](CCC(=O)O)C(=O)O)[C@@H](C)O)C(C)C)C(=O)O)C(=O)O
# B5: peptide of SEQ ID NO: 36 (peptide)
# peptide: H[Aib]QGTFTSDK([γGlu-Palmitoyl])SKYLD[Aib]RAAQDFVQWLKDGRG-NH2
# modifications: N-terminus assumed
# SMILES: CCCCCCCCCCCCCCCC(=O)N[C@@H](CCC(=O)NCCCC[C@H](NC(=O)[C@H](CC(=O)O)NC(=O)[C@H](CO)NC(=O)[C@@H](NC(=O)[C@H](Cc1ccccc1)NC(=O)[C@@H](NC(=O)CNC(=O)[C@H](CCC(N)=O)NC(=O)C(C)(C)NC(=O)[C@@H](N)Cc1c[nH]cn1)[C@@H](C)O)[C@@H](C)O)C(=O)N[C@@H](CO)C(=O)N[C@@H](CCCCN)C(=O)N[C@@H](Cc1ccc(O)cc1)C(=O)N[C@@H](CC(C)C)C(=O)N[C@@H](CC(=O)O)C(=O)NC(C)(C)C(=O)N[C@@H](CCCNC(=N)N)C(=O)N[C@@H](C)C(=O)N[C@@H](C)C(=O)N[C@@H](CCC(N)=O)C(=O)N[C@@H](CC(=O)O)C(=O)N[C@@H](Cc1ccccc1)C(=O)N[C@H](C(=O)N[C@@H](CCC(N)=O)C(=O)N[C@@H](Cc1c[nH]c2ccccc12)C(=O)N[C@@H](CC(C)C)C(=O)N[C@@H](CCCCN)C(=O)N[C@@H](CC(=O)O)C(=O)NCC(=O)N[C@@H](CCCNC(=N)N)C(=O)NCC(N)=O)C(C)C)C(=O)O
# Target: glucagon receptor (UniProt P47871 26-477, limits assumed)
# Experiment: cell-based or functional assay
# glucagon receptor, sequence (P47871 26-477 limits assumed): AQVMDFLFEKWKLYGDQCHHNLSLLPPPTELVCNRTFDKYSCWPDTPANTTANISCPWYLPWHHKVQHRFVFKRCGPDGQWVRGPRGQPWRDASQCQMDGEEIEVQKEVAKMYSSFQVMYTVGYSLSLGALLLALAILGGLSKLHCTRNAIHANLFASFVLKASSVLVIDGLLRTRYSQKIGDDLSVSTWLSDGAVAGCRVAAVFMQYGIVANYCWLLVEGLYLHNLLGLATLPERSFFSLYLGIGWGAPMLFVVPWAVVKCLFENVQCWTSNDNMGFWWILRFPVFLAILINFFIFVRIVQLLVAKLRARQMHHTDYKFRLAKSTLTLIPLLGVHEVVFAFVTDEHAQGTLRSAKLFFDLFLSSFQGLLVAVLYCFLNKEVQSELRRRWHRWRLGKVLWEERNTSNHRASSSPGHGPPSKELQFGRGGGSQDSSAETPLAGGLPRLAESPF
row,Binder,EC50 (nM) at glucagon receptor [nM]
1,B1,1.1
2,B2,1.18
3,B3,0.018
4,B4,0.023
5,B5,0.028

# Target: GLP-1 receptor (UniProt P43220 24-463, limits assumed)
# Experiment: cell-based or functional assay
row,Binder,EC50 (nM) at GLP-1 receptor [nM]
1,B1,0.071
2,B2,0.085
3,B3,0.016
4,B4,0.019
5,B5,0.003

# Target: T1, GIP receptor
# Experiment: cell-based or functional assay
row,Binder,EC50 (nM) at GIP receptor [nM]
1,B1,316
2,B2,16.1
3,B3,3.3
4,B4,3.96
5,B5,0.47
